Test results as given in patent publication US20230218875A1, “PARTICLE-ATTACHED MICRONEEDLE AND METHOD OF MANUFACTURING THE SAME” (QuadMedicine, Inc., priority 2022, published 2023).

Assay: Adhesion force of ovalbumin particles to PDMS 40 by centrifugation
Assay type: physicochemical
Experimental: Ovalbumin particles with an average diameter of 10 μm were attached to a plate with a diameter of 0.5 cm containing a PDMS 40 adhesive layer. Next, the plate was placed in a centrifuge tube. After centrifuging the tube at 27,000 g (Centrifuge, 1730R, LABOGENE, South Korea) for 10 min, the plate was weighed using a high-precision balance (Satorius SE2-F, Gottingen, Germany), and the amount of ovalbumin particles separated from the surface of PDMS 40 during centrifugation was calculated.

B1: ovalbumin particles: Ovalbumin particles with an average diameter of 10 μm attached to a plate containing a PDMS 40 adhesive layer (protein, UniProt P01012 2-386, looked up)
Ovalbumin: GSIGAASMEFCFDVFKELKVHHANENIFYCPIAIMSALAMVYLGAKDSTRTQINKVVRFDKLPGFGDSIEAQCGTSVNVHSSLRDILNQITKPNDVYSFSLASRLYAEERYPILPEYLQCVKELYRGGLEPINFQTAADQARELINSWVESQTNGIIRNVLQPSSVDSQTAMVLVNAIVFKGLWEKAFKDEDTQAMPFRVTEQESKPVQMMYQIGLFRVASMASEKMKILELPFASGTMSMLVLLPDEVSGLEQLESIINFEKLTEWTSSNVMEERKIKVYLPRMKMEEKYNLTSVLMAMGITDVFSSSANLSGISSAESLKISQAVHAAHAEINEAGREVVGSAEAGVDAASVSEEFRADHPFLFCIKHIATNAVLFFGRCVSP
modifications: particles
notes: Ovalbumin particles with an average diameter of 10 μm attached to a plate containing a PDMS 40 adhesive layer
27,000 g for 10 min, pressure 0.2 N/cm^2, average diameter 10 μm
  Initial ovalbumin particles remaining on the surface of PDMS 40: 96%
From centrifugation at 27,000 g
  Vertical adhesion force between ovalbumin particles and PDMS 40: more than 0.2 N/cm^2
